From article PMC7195491, “DIP/Dpr interactions and the evolutionary design of specificity in protein families” (Nature Communications, 2020) come the findings set out here.

Holding throughout (conditions): both partners purified
Assay [1] addresses T1, DIP-α A11T (Drosophila melanogaster).
T1 construct: DIP-α, Drosophila melanogaster, extracellular region; the results' sentence speaks of 'Dpr10 positions 10 and 11'; source: HEK293F, transiently transfected, purified from conditioned media (Ni IMAC, SEC)
As to the kind of experiment: SPR; Biacore T100, CM4 chip; DIPs and DIP mutants immobilised by amine coupling (760-980 RU), Dprs and Dpr mutants as analytes (three-fold dilution series, up to 81 μM, in some cases up to 27 or 9 μM); 25 °C; 10 mM Tris-HCl pH 7.2, 150 mM NaCl, 1 mM EDTA, 1 mg/mL BSA, 0.01% Tween-20; equilibrium fit, 1:1 model; for KDs > 300 μM a lower limit is listed. For orientation: SPR reads the build-up and loss of mass on a sensor chip optically.

In assay [2] the target is T2, DIP-α K10Q (Drosophila melanogaster).
T2 construct: DIP-α, Drosophila melanogaster, extracellular region; source: HEK293F, transiently transfected, purified from conditioned media (Ni IMAC, SEC)
The description is as above.

The target of assay [3] is T3, DIP-α (Drosophila melanogaster).
T3 construct: DIP-α, Drosophila melanogaster, extracellular region; The PDB entries are cited structures and may hold shorter constructs; also called blue subgroup DIP; source: HEK293F, transiently transfected, purified from conditioned media (Ni IMAC, SEC)
The assay is described as above.

Assay [4] deals with T4, DIP-β (isoformG), extracellular region (Drosophila melanogaster).
T4 construct: DIP-β, Drosophila melanogaster, isoform G as printed, extracellular region; source: HEK293F cells, transiently transfected, purified from conditioned media (Ni-IMAC, size-exclusion chromatography)
Nature of the assay: SPR; Biacore T100, CM4 chip; DIPs and DIP mutants immobilised by amine coupling, Dprs as analytes; 25 °C; 10 mM Tris-HCl pH 7.2, 150 mM NaCl, 1 mM EDTA, 1 mg/mL BSA, 0.01% Tween-20; duplicate responses fit globally to a 1:1 model; Rmax fixed for KDs > 100 μM, lower limit listed for KDs > 300 μM.

A word on the Kd: it is the constant that tells how readily two partners part at equilibrium. A low value points to a tighter complex.

B1: Dpr10 (domain or fragment)
chain: YQRQSVSNNNHNNAEAKPTHAPPSHYPHGHKWNEPYFDLTMPRNITSLVGKSAYLGCRVKHLGNKTVAWIRHRDLHILTVGTYTYTTDQRFQTSYHRDIDEWTLQIKWAQQRDAGVYECQISTQPVRSYSVNLNIVDLIDAETSDIMQQYYNDDAFYIAENRVYQSSNDEFAGMFGPIQTVAVPTATILGGPDLYVDKGSTINLTCIIKFSPEPPTHIFWYHQDKVLSEETSGGRLKFKTIKSEETKSILLIYDADLLHSGKYSCYPSNTEIASIR
For the molecule B1, the “fold increase of KD over wild type” value in assay [1] and in assay [2] was around 10 fold each time. The same molecule showed a Kd in assay [3] of 1.5 ± 0.1 µM.

B2: Dpr10 V31K Q29E L10G {V144K Q142E L93G}, extracellular region (domain or fragment)
chain: WNEPYFDLTMPRNITSLVGKSAYLGCRVKHLGNKTVAWIRHRDGHILTVGTYTYTTDQRFQTSYHRDIDEWTLQIKWAQQRDAGVYECQISTEPKRSYSVNLNIVVPTATILGGPDLYVDKGSTINLTCIIKFSPEPPTHIFWYHQDKVLSEETSGGRLKFKTIKSEETKSILLIYDADLLHSGKYSCYPSNTEIASIR
modifications: Limits not printed (ref. 11). Start follows PDB 6NRQ entity 1 (W3 = UniProt 50); end is the end of Ig2 in the entry's features.
For B2, the Kd in assay [4] is above 500 µM.

B3: Dpr10 V31K Q29E L10G (domain or fragment)
chain: B2 chain
modifications: Same molecule as Dm6. Limits not printed (ref. 11). Start follows PDB 6NRQ; end is the end of Ig2 in the entry's features.
Molecule B3 returned a Kd in assay [3] above 500 µM.
